Test results reported in patent US20150252074A1, “Antagonist for (Pro)Renin Receptor for the Treatment of Hypertension and Diabetes” (priority 2012, published 2015).
“Also recorded” adds a separate entry of the source. Where no end group is shown, it is not given here.

How the values were obtained:
[1] = tested on: Ang II type 1 receptor (AT1R); test: ICV losartan blockade of the pressor response induced by prorenin or renin; type: in vivo, mice; settings: losartan 10 ug/ul ICV at 0.3 ul/minute for 10 minutes
[2] = target: T1, (pro)renin receptor (PRR) (Mus musculus, UniProt Q9CYN9); test: ICV infusion of PRR antagonist peptides against the prorenin-induced pressor response, telemetric BP recording; type: in vivo, C57BI/6J mice; settings: for effect on prorenin (ICV) induced pressor response (in words): ICV administration, C57BI/6J mice; for ΔMAP (prorenin-induced pressor response in peptide-infused mice): ICV infusion, peptide 45 ng/u1, mouse prorenin 100 ng/ul, vs. prorenin, N=5/group
T1 construct: intracerebroventricular (ICV) cannula for infusion of mouse prorenin (100 ng/ul), PR10, or PR20; from tissue; host or cells: brain of conscious C57Bl/6J mice (in vivo, ICV infusion)
Protocol: C57BI/6J mice (N=5/group) were each implanted with a telemetric probe for BP recording and an intracerebroventricular (ICV) cannula for infusion of mouse prorenin (100 ng/ul), PR10, or PR20 (45 ng/u1) at 0.3 ul/minute for 10 minutes. Mouse prorenin infusion increased the BP (mmHg) in WT mice (ΔMAP: 31.3±1.1); however, the prorenin-induced pressor response was abolished in either PR10 (ΔMAP: 16.9±4.4 vs. prorenin) or PR20 (ΔMAP: 12.7±0.5 vs. prorenin) infused mice.

[3] = target: (pro)renin receptor (PRR) in mouse brain sections (mouse) (UniProt Q9CYN9); test: cell-based or functional assay
Nefh-PRR mice = test: Pressor response to ICV infusion of mouse prorenin or mouse renin in neuron-specific PRR knockout mice (Nefh-PRR); type: in vivo; settings: 100 ng/ul at 0.3 ul/minute for 10 minutes ICV, N=5/group
Protocol: (§1) FIG. 6 is a series of graphs illustrating the pressor response to intracerebroventricular (ICV) infusion of carbachol (FIG. 6A), Ang II (FIG. 6B), renin (FIG. 6C), and prorenin (FIG. 6D) in wild-type (WT) and Nefh-PRR mice. WT and Nefh-PRR mice were implanted with telemetric transmitters and ICV cannula. Two weeks after recovery, mice were ICV infused (0.3μl/min) with carbachol (100 ng/μl), Ang II (100 ng/μl), Ang II (100 ng/μl)+losartan (10 μg/μl), mouse renin (100 ng/μl), mouse prorenin (100 ng/μl), or mouse prorenin (100 ng/μl)+losartan (10 μg/μl) over 10 minutes. Blood pressure (BP) was recorded in conscious freely moving mice. *P<0.05 vs. WT.
(§2) Neuron-specific PRR knockout mice (Nefh-PRR) and wildtype (WT) littermates (N=5/group) were each implanted with a telemetric probe for blood pressure (BP) recording and an intracerebroventricular (ICV) cannula for infusion of mouse prorenin (100 ng/ul), mouse renin (100 ng/ul), or an Ang II type 1 receptor (AT1R) blocker (losartan, 10 ug/ul) at 0.3 ul/minute for 10 minutes. Mouse prorenin infusion increased the BP (mmHg) in WT mice (ΔMAP: 41±5); however, the prorenin induced pressor response was abolished in Nefh-PRR mice (ΔMAP: 5±1).

WT mice = test: Pressor response to ICV infusion of mouse prorenin or mouse renin in wildtype (WT) mice, telemetric BP recording; type: in vivo; settings: 100 ng/ul at 0.3 ul/minute for 10 minutes ICV, N=5/group
Protocol: as §1, §2

[4] = target: T2, (pro)renin receptor (PRR) in mouse brain sections (mouse, UniProt Q9CYN9 18-350); test: FITC-labelled peptide, fluorescence microscopy on mouse brain sections
T2 construct: whole, on cells; Endogenous receptor in mouse brain tissue, not a recombinant construct
Protocol: In order to determine which residues of the PR20 antagonist peptide are involved in binding PRR, an alanine replacement assay was performed. A series of peptides comprising a single alanine substitution at each of the 19 amino acid positions were generated. Each of the 19 alanine substituted peptides and the PR20 peptide were labeled with FITC. Using fluorescent microscopy, each peptide was examined for binding to PRR in mouse brain sections.

T1 sequence (Q9CYN9 18-350): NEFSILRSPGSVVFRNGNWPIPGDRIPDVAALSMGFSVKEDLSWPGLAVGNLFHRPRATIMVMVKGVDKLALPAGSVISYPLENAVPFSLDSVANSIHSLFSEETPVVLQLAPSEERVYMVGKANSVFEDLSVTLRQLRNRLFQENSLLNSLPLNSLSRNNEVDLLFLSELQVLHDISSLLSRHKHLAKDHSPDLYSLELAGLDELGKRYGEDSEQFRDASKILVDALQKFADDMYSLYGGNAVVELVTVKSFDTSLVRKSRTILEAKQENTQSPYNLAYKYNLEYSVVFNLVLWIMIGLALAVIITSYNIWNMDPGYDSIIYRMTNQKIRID
Chain of (pro)renin receptor (PRR) in mouse brain sections (mouse) (Q9CYN9 18-350): as above
T2 sequence (Q9CYN9 18-350): as above

CCCCc1nc(Cl)c(CO)n1Cc1ccc(-c2ccccc2-c2nn[nH]n2)cc1 [losartan]
effect on pressor response induced by prorenin or renin (in words) [1]: completely blocked

IFDNIISQGVLKEDVF (PRR antagonist peptide (PR10))
effect on prorenin (ICV) induced pressor response (in words) [2]: abolished; also recorded: significantly reduced | ΔMAP (prorenin-induced pressor response in peptide-infused mice) ([2]; 0.3 ul/minute for 10 minutes): 16.9±4.4 mmHg

LPTDTTTFKRIFLKRMPSI (PRR antagonist peptide (PR20))
effect on prorenin (ICV) induced pressor response (in words) [2]: abolished; also recorded: significantly reduced | ΔMAP (prorenin-induced pressor response in peptide-infused mice) ([2]; 0.3 ul/minute for 10 minutes): 12.7±0.5 mmHg

mouse prorenin (from UniProt P06281 22-402) (ligand)
pressor response to ICV mouse prorenin in WT mice (ΔMAP) [3]: 41 mmHg | pressor response to ICV mouse prorenin in neuron-specific PRR knockout (Nefh-PRR) mice (ΔMAP) [3]: 5 mmHg

B1: mouse prorenin: activating ligand of PRR, infused ICV to induce a pressor response (protein)
chain: LPTRTATFERIPLKKMPSVREILEERGVDMTRLSAEWGVFTKRPSLTNLTSPVVLTNYLNTQYYGEIGIGTPPQTFKVIFDTGSANLWVPSTKCSRLYLACGIHSLYESSDSSSYMENGSDFTIHYGSGRVKGFLSQDSVTVGGITVTQTFGEVTELPLIPFMLAKFDGVLGMGFPAQAVGGVTPVFDHILSQGVLKEEVFSVYYNRGSHLLGGEVVLGGSDPQHYQGNFHYVSISKTDSWQITMKGVSVGSSTLLCEEGCAVVVDTGSSFISAPTSSLKLIMQALGAKEKRIEEYVVNCSQVPTLPDISFDLGGRAYTLSSTDYVLQYPNRRDKLCTLALHAMDIPPPTGPVWVLGATFIRKFYTEFDRHNNRIGFALAR
ΔMAP (increase of BP by mouse prorenin infusion alone) ([2]; ICV mouse prorenin 100 ng/ul, 0.3 ul/minute for 10 minutes, WT (C57BI/6J) mice): 31.3±1.1 mmHg | ΔMAP (pressor response to ICV infusion) (Nefh-PRR mice): 5±1 mmHg | ΔMAP (pressor response to ICV infusion) (WT mice): 41±5 mmHg

LPTDTTTFKRIFLKRMPSI (also: FITC label, site not given here, also called PR20 antagonist peptide) [PR20 peptide labeled with FITC]
binding result [4]: binds

B2: mouse renin: mouse renin protein infused ICV to induce a pressor response (protein, UniProt P06281 72-402, looked up)
Renin-1: SPVVLTNYLNTQYYGEIGIGTPPQTFKVIFDTGSANLWVPSTKCSRLYLACGIHSLYESSDSSSYMENGSDFTIHYGSGRVKGFLSQDSVTVGGITVTQTFGEVTELPLIPFMLAKFDGVLGMGFPAQAVGGVTPVFDHILSQGVLKEEVFSVYYNRGSHLLGGEVVLGGSDPQHYQGNFHYVSISKTDSWQITMKGVSVGSSTLLCEEGCAVVVDTGSSFISAPTSSLKLIMQALGAKEKRIEEYVVNCSQVPTLPDISFDLGGRAYTLSSTDYVLQYPNRRDKLCTLALHAMDIPPPTGPVWVLGATFIRKFYTEFDRHNNRIGFALAR
ΔMAP (pressor response to ICV infusion) (Nefh-PRR mice): 27±2 mmHg | ΔMAP (pressor response to ICV infusion) (WT mice): 31±5 mmHg
